In PMC3585228, “Consequences of ChemR23 Heteromerization with the Chemokine Receptors CXCR4 and CCR7” (PLoS ONE, 2013):
Blank lines part the entries; values can stand above or below the binder they belong to.

Columns and labels:
[1] = target: T1, CCR7-hRLuc / CCR7-EYFP (human, UniProt P32248 25-378); test: FRET or BRET; BRET titration in HEK293T cells: constant amount of the hRLuc donor construct, increasing amounts of the EYFP acceptor construct; signal recorded 5 minutes after coelenterazine H; conditions: partners not purified
T1 construct: chemokine receptor CCR7; cDNA in pcDNA3.1, fusion at its 3' end; Two constructs, each with ONE of the two fusions: CCR7-hRLuc (donor) and CCR7-EYFP (acceptor); source: HEK-293T, transfected (calcium phosphate), in living cells; not shown: hRLuc (humanized Renilla luciferase), C-terminal, kept; EYFP, C-terminal, kept
T1 sequence (looked up): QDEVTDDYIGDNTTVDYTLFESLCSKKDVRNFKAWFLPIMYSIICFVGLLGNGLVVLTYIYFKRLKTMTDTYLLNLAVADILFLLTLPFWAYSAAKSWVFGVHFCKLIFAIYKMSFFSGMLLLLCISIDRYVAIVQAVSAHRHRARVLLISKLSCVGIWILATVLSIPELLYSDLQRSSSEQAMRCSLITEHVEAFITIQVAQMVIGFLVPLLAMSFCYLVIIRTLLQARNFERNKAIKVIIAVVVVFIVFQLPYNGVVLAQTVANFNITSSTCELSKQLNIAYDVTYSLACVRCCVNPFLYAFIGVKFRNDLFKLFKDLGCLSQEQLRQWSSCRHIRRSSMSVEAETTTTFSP

[2] = target: T2, CXCR4-hRLuc / CXCR4-EYFP (human, UniProt P61073 1-352); test: as above; conditions: partners not purified
T2 construct: chemokine receptor CXCR4; cDNA in pcDNA3.1, fusion at its 3' end; Two constructs, each with ONE of the two fusions: CXCR4-hRLuc (donor) and CXCR4-EYFP (acceptor); source: HEK-293T, transfected (calcium phosphate), in living cells; not shown: hRLuc (humanized Renilla luciferase), C-terminal, kept; EYFP, C-terminal, kept
T2 sequence (P61073 whole entry, the tested form may be a part): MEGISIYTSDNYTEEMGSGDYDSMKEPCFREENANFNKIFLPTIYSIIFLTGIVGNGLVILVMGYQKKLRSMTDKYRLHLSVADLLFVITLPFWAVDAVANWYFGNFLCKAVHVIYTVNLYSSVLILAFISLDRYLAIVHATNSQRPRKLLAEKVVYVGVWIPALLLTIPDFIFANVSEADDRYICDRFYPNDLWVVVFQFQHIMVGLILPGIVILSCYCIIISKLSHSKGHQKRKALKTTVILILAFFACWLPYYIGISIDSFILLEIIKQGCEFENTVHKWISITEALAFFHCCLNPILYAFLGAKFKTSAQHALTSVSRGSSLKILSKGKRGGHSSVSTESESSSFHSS

[3] = target: T3, CCR7 on CHO-K1 cells (human, UniProt P32248 25-378); test: radioligand binding; competition on CHO-K1 cells co-expressing ChemR23 and CCR7; tracer 0.1 nM 125I-[145-157]-chemerin; competitors chemerin (homologous) or CCL19 (heterologous, cross-competition); same buffer, one hour, filtration; conditions: one partner purified
T3 construct: chemokine receptor CCR7; source: CHO-K1, stably expressing, alone or co-expressed with ChemR23 (clone 26); membrane preparations or cells
T3 sequence (looked up): T1 sequence (looked up)

[4] = target: T3, CCR7 on CHO-K1 cells; test: cell-based or functional assay
[5] = target: T3, CCR7 on CHO-K1 cells; test: radioligand binding; competition on CHO-K1 cells expressing CCR7 only (methods: membrane preparations); tracer 0.1 nM 125I-CCL19; 50 mM Hepes pH 7.4, 1 mM CaCl2, 5 mM MgCl2, 0.5% BSA; one hour; filtration; conditions: one partner purified
[6] = target: T3, CCR7 on CHO-K1 cells; test: radioligand binding; competition on CHO-K1 cells co-expressing ChemR23 and CCR7; tracer 0.1 nM 125I-CCL19; competitors CCL19 (homologous) or chemerin (heterologous, cross-competition); same buffer, one hour, filtration; conditions: one partner purified

BRET50, fold against the CCR7 homomer [1]: 2 fold
BRET50, fold against the CXCR4 homomer [2]: 2 fold
B1: ChemR23-hRLuc / ChemR23-EYFP (receptor, human, UniProt Q99788 1-373, looked up)
chain: MRMEDEDYNTSISYGDEYPDYLDSIVVLEDLSPLEARVTRIFLVVVYSIVCFLGILGNGLVIIIATFKMKKTVNMVWFLNLAVADFLFNVFLPIHITYAAMDYHWVFGTAMCKISNFLLIHNMFTSVFLLTIISSDRCISVLLPVWSQNHRSVRLAYMACMVIWVLAFFLSSPSLVFRDTANLHGKISCFNNFSLSTPGSSSWPTHSQMDPVGYSRHMVVTVTRFLCGFLVPVLIITACYLTIVCKLQRNRLAKTKKPFKIIVTIIITFFLCWCPYHTLNLLELHHTAMPGSVFSLGLPLATALAIANSCMNPILYVFMGQDFKKFKVALFSRLVNALSEDTGHSSYPSHRSFTKMSSMNERTSMNERETGML
notes: ChemR23, the receptor of chemerin; cDNA in pcDNA3.1, fusion at its 3' end; Two constructs, each with ONE of the two fusions: ChemR23-hRLuc (BRET donor) and ChemR23-EYFP (BRET acceptor); source: HEK-293T, transfected (calcium phosphate), in living cells; not shown: hRLuc (humanized Renilla luciferase), C-terminal, kept; EYFP, C-terminal, kept

IC50 [3]: 6.85 nM
EC50 of calcium mobilization (aequorin assay), CHO-K1 cells expressing CCR7 only [4]: 7.66 nM
IC50 [5]: 2.42 nM
IC50 [6]: 0.27 nM
B2: CCL19 (unlabelled) (ligand, UniProt Q99731 22-98, looked up)
chain: GTNDAEDCCLSVTQKPIPGYIVRNFHYLLIKDGCRVPAVVFTTLRGRQLCAPPDQPWVERIIQRLQRTSAKMKRRSS
notes: chemokine CCL19, the CCR7-specific ligand
